Biological target: Pol II stalk (RPB4-RPB7), S. scrofa (S. scrofa)
Experiment: cryo-EM structure; PEC-RNGTT: phosphorylated Pol II, DNA-RNA scaffold with 17 nt 5′-triphosphate RNA, DSIF, RNGTT, 100 μM GMPPNP, NELF added stepwise; purified and crosslinked by GraFix; NELF seen in an Up and a Down state
Settings: both partners purified

B1: RNA guanylyltransferase and 5′-phosphatase (RNGTT) (enzyme)
chain: not shown
notes: human RNGTT, full-length gene; TPase domain, linker, GTase domain with OB fold; Released from the IgG resin by on-column digestion; also called capping enzyme; CE; source: Expi293F, transfected, purified (IgG resin, on-column digestion, Mono Q); not shown: 4 × ProteinA, N-terminal, cleaved
binding result: binds

Reference: PMC11139899, “Structures of co-transcriptional RNA capping enzymes on paused transcription complex” (Nature Communications, 2024)
